Measurements reported in patent US7202050B2, “Methods for measuring phosphatase activity” (priority 2002, dated 2007).

Molecular target: T1, V8 protease (Staphylococcus aureus, UniProt P0C1U8)
T1 construct: purchased CalBiochem (San Diego, Calif.)
Assay type: biochemical
Conditions: 30 μM peptide pre-incubated with 40 units CKII 18 hrs at 30° C. in absence of ATP; 1 unit V8 protease, room temperature, in less than three hours; HPLC (FIG. 3)
Method: The peptide (30 μM) was incubated at room temperature with V8 protease (0.1 units) in a buffer containing 20 mM Tris-HCl, 50 mM KCl, 10 mM MgCl2, pH 7.5 (CKII buffer) and aliquots were removed at various time points and flash-frozen in a dry-ice/methanol bath. Products of the protease digestion were then separated on the HPLC column using a 0% to 50% acetonitrile/water gradient in the presence of 0.1% TFA. Peptide was detected using both absorbance at 250 nm and by fluorescence of the rhodamine label using 530 nm excitation and 590 nm emission filters.
Subsequently, 1 unit of V8 protease was added to each sample and the samples were incubated at room temperature. Aliquots were removed at various time points and flash-frozen in a dry-ice/methanol bath for HPLC analysis as described above.

T1 sequence (P0C1U8 69-336): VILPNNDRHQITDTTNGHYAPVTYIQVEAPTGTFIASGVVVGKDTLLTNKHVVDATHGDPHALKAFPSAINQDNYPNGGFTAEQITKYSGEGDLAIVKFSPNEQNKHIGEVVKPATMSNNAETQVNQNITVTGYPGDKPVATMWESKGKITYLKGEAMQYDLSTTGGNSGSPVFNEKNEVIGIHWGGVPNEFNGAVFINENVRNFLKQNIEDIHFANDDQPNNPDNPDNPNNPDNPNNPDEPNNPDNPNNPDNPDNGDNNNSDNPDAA

Question: “TMR-Asp-Glu-Ser-Glu-Glu-Glu-Asp-Lys(Nε-Flsn)-COOH (tetramethylrhodamine-DESEEEDK(fluorescein)-OH) [unphosphorylated peptide]” was tested. Which “peptide digested by V8 protease” value did it give?
Answer: The value was 80%.
